Laboratory results from patent publication CN111303285A (BAILISIKANG BIOLOGICAL PHARMACEUTICAL HANGZHOU CO LTD, dated 2020).

Key:
[1] = biological target: T1, OX40 expressed on cells (OX40-293F细胞; 19B3 HEK293 NF-κB报告细胞系) (UniProt P43489 29-277); test: cell-based or functional assay
T1 sequence (looked up): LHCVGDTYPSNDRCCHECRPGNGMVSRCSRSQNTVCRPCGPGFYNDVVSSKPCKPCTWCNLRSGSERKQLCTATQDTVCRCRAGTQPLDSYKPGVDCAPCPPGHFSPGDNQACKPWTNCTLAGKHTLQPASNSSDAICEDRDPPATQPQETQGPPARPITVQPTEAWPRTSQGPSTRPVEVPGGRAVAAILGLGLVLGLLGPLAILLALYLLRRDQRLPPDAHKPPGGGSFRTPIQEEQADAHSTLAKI

4-1BB-rFc融合蛋白 = biological target: T2, 4-1BB-rFc融合蛋白 (UniProt Q07011 24-186); test: ELISA, fusion protein coated on the plate
T2 construct: extracellular domain; also called 4-1BB融合蛋白; not shown: rFc part

4-1BB-His融合蛋白 = biological target: T3, 4-1BB-His融合蛋白 (UniProt Q07011 24-186); test: ELISA, fusion protein coated on the plate
T3 construct: extracellular domain; also called 4-1BB融合蛋白; not shown: His tag

- NF-κB luciferase reporter (RLU) in 19B3 cells expressing OX40; 半数有效浓度(EC50) [1]: 0.803 µg/mL
- binding result (4-1BB-rFc融合蛋白): no binding
- binding result (4-1BB-His融合蛋白): no binding
B1: 本发明抗OX40抗体 (murine monoclonal anti-OX40 antibody of the invention) (antibody, V domains shown)
VH: EVQLQQSGAELVKPGASVKLSCKASGYTFTNYWIHWVKQRPGQGLEWIGEINPSNGRTNSNEKFKNKATLTVDKSSSTAYMQLSSLTSEDSAVYYCAEAVPYYFVYWGQGTTLTVSS
VL: DIVMTQAASSLSASLGDRVTISCRASQDINNYLNWYQQKPDGTVKLLIYFTSGLRSGVPSRFSGSGSGTDYSLTISNLEQEDIATYFCQQGNTLPLTFGAGTKLELN
notes: also called 本发明OX40抗体; 靶向OX40的抗体
